Numbering of substitutions follows the chain as printed. Names may count otherwise.
B1: Fab VH5-51_IGHD5-18*01>3_IGHJ4*01 G100K/G104T (H:KT) & V3-4_IGLJ1*01 (Fab, V domains shown)
VH: EVQLVQSGAEVKKPGESLKISCKGSGYSFTSYWIGWVRQMPGKGLEWMGIIYPGDSDTRYSPSFQGQVTISADKSISTAYLQWSSLKASDTAMYYCARRKYSYTYDYFDYWGQGTLVTVSS
VL: QTVVTQEPSFSVSPGGTVTLTCGLSSGSVSTSYYPSWYQQTPGQAPRTLIYSTNTRSSGVPDRFSGSILGNKAALTITGAQADDESDYYCVLYMGSGISYVFGTGTKVTVL
notes: Fab expressed in E. coli; Plasmid A adds CH1 with His6 and Flag tags to the heavy chain; Plasmid E adds lambda CL to the light chain; also called H:KT & L:wt; KT double mutant
B2: Fab VH5-51_IGHD5-18*01>3_IGHJ4*01 G100K/G104T (H:KT) & V3-4_IGLJ1*01 (wildtype light chain) (Fab, V domains shown)
VH: B1 VH
VL: B1 VL
notes: Fab made in E. coli; VH was cloned into Plasmid A (CH1, His6 and Flag tags) and lambda VL into Plasmid E (lambda CL); also called H:KT & L:wt; KT double mutant
B3: Fab VH5-51_IGHD5-18*01>3_IGHJ4*01 G100K/G104T G24T/S28R/G35V (H:KT TRV) & V3-4_IGLJ1*01 (Fab, V domains shown)
VH: B1 VH with G24T, S28R, G35V
VL: B1 VL
notes: Fab expressed in E. coli; Plasmid A adds CH1 with His6 and Flag tags to the heavy chain; Plasmid E adds lambda CL to the light chain; also called H:KT TRV & L:wt; G100K/G104T G24T/S28R/G35V & parent
B4: Fab VH5-51_IGHD5-18*01>3_IGHJ4*01 G100K/G104T (H:KT) & V3-4_IGLJ1*01 S52A (Fab, V domains shown)
VH: B1 VH
VL: B1 VL with S52A
notes: Fab (CH1 with His6/Flag tags from Plasmid A, lambda CL from Plasmid E); also called G100K/G104T & S52A
B5: Fab VH5-51_IGHD5-18*01>3_IGHJ4*01 G100K/G104T (H:KT) & V3-4_IGLJ1*01 N54A (Fab, V domains shown)
VH: B1 VH
VL: B1 VL with N54A
notes: Fab (CH1 with His6/Flag tags from Plasmid A, lambda CL from Plasmid E); also called G100K/G104T & N54A
B6: Fab VH5-51_IGHD5-18*01>3_IGHJ4*01 G100K/G104T (H:KT) & V3-4_IGLJ1*01 M94R/S96M (L:RM) (Fab, V domains shown)
VH: B1 VH
VL: B1 VL with M94R, S96M
notes: Fab expressed in E. coli; Plasmid A adds CH1 with His6 and Flag tags to the heavy chain; Plasmid E adds lambda CL to the light chain; also called H:KT & L:RM; G100K/G104T & M94R/S96M
B7: Fab VH5-51_IGHD5-18*01>3_IGHJ4*01 G100K/G104T S28R (H:KT S28R) & V3-4_IGLJ1*01 (Fab, V domains shown)
VH: B1 VH with S28R
VL: B1 VL
notes: Fab expressed in E. coli; Plasmid A adds CH1 with His6 and Flag tags to the heavy chain; Plasmid E adds lambda CL to the light chain; also called H:KT S28R & L:wt; G100K/G104T S28R & parent
B8: Fab VH5-51_IGHD5-18*01>3_IGHJ4*01 G100K/G104T (H:KT) & V3-4_IGLJ1*01 T55A (Fab, V domains shown)
VH: B1 VH
VL: B1 VL with T55A
notes: Fab (CH1 with His6/Flag tags from Plasmid A, lambda CL from Plasmid E); also called G100K/G104T & T55A
B9: Fab VH5-51_IGHD5-18*01>3_IGHJ4*01 G100K/G104T (H:KT) & V3-4_IGLJ1*01 T53A (Fab, V domains shown)
VH: B1 VH
VL: B1 VL with T53A
notes: Fab (CH1 with His6/Flag tags from Plasmid A, lambda CL from Plasmid E); also called G100K/G104T & T53A
B10: Fab VH5-51_IGHD5-18*01>3_IGHJ4*01 G100K/G104T (H:KT) & V3-4_IGLJ1*01 S58A (Fab, V domains shown)
VH: B1 VH
VL: B1 VL with S58A
notes: Fab (CH1 with His6/Flag tags from Plasmid A, lambda CL from Plasmid E); also called G100K/G104T & S58A
B11: Fab VH5-51_IGHD5-18*01>3_IGHJ4*01 G100K/G104T (H:KT) & V3-4_IGLJ1*01 S57A (Fab, V domains shown)
VH: B1 VH
VL: B1 VL with S57A
notes: Fab (CH1 with His6/Flag tags from Plasmid A, lambda CL from Plasmid E); also called G100K/G104T & S57A
B12: Fab VH5-51_IGHD5-18*01>3_IGHJ4*01 G100K/G104T G24T/S28R/G35V (H:KT TRV) & V3-4_IGLJ1*01 M94R/S96M (L:RM) (Fab, V domains shown)
VH: B1 VH with G24T, S28R, G35V
VL: B1 VL with M94R, S96M
notes: Fab expressed in E. coli; Plasmid A adds CH1 with His6 and Flag tags to the heavy chain; Plasmid E adds lambda CL to the light chain; also called H:KT TRV & L:RM; G100K/G104T G24T/S28R/G35V & M94R/S96M

Assays:
[1] = target: T1, Recombinant Human DLL4 (R&D Systems Cat#1506-D4/CF) (human, UniProt Q9NR61 27-524); experiment: ELISA, DLL4 coated on plate, Fab at 20 nM
T1 construct: Bought recombinant protein; also called delta-like protein 4; Delta-like 4

[2] = target: T1, Recombinant Human DLL4 (R&D Systems …); experiment: ELISA, DLL4 coated on plate, Fab at 0.74 nM
[3] = target: T1, Recombinant Human DLL4 (R&D Systems …); experiment: ELISA, DLL4 coated on plate, Fab at 2.22 nM
[4] = target: T1, Recombinant Human DLL4 (R&D Systems …); experiment: ELISA, DLL4 coated on plate, Fab at 6.67 nM
[5] = target: T1, Recombinant Human DLL4 (R&D Systems …); experiment: ECL (Meso Scale Discovery) multispot binding assay, DLL4 immobilised, Fab at 100 nM
[6] = target: T2, Recombinant Human DLL4 (delta-like protein 4) (human, UniProt Q9NR61 27-524); experiment: ECL (MSD) multispot binding assay, Fab on immobilised recombinant human DLL4
T2 construct: also called rHuman DLL4; Delta-like 4

| ELISA signal [1] | ELISA signal [2] | ELISA signal [3] | ELISA signal [4] | ECL signal [5] | ECL signal [6] | Binder |
| --- | --- | --- | --- | --- | --- | --- |
| 0.018 | 0.019 | 0.014 | 0.042 | 9360 | – | B1 |
| – | – | – | – | – | 9360 | B2 |
| 0.054 | 0.002 | 0 | 0.023 | – | – | B3 |
| – | – | – | – | – | 15200 | B4 |
| – | – | – | – | – | 12900 | B5 |
| 0.087 | 0 | 0.007 | 0.023 | – | – | B6 |
| 0.009 | 0 | 0 | 0.003 | – | – | B7 |
| – | – | – | – | – | 12700 | B8 |
| – | – | – | – | – | 13200 | B9 |
| – | – | – | – | – | 12600 | B10 |
| – | – | – | – | – | 12600 | B11 |
| 0.122 | 0.006 | 0.028 | 0.062 | – | – | B12 |
